Measurements as given in patent US8809010B2, “Method for prophylactic treatment of alzheimer's disease using inhibitors of glutaminyl cyclase and glutamate cyclases” (Probiodrug AG, priority 2003, dated 2014).

Substrate: NC(=O)CCC(N)C(=O)Nc1ccc2ccccc2c1
Test: Continuous spectrophotometric QC assay (glutamate dehydrogenase coupled), substrate kinetics;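 also: initial rates read on a microplate reader at 30 °C, with enzyme activity quantified against an ammonia calibration curve under the same assay conditions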
Type: biochemical
Conditions: other: Human QC
[1] = 0.05M Tris-HCl, pH 8.0, 0.5 M KCl, pH 8.0

Experimental: The initial velocities were evaluated and the enzymatic activity was determined from a standard curve of ammonia under assay conditions. All samples were measured at 30° C., using either the [sequence]luor Plus or the Sunrise (both from TECAN) reader for microplates. Kinetic data was evaluated using GraFit software.

B1: human QC (Homo sapiens) (protein)
chain: VSPSASAWPEEKNYHQPAILNSSALRQIAEGTSISEMWQNDLQPLLIERYPGSPGSYAARQHIMQRIQRLQADWVLEIDTFLSQTPYGYRSFSNIISTLNPTAKRHLVLACHYDSKYFSHWNNRVFVGATDSAVPCAMMLELARALDKKLLSLKTVSDSKPDLSLQLIFFDGEEAFLHWSPQDSLYGSRHLAAKMASTPHPPGARGTSQLHGMDLLVLLDLIGAPNPTFPNFFPNSARWFERLQAIEHELHELGLLKDHSLEGRYFQNYSYGGVIQDDHIPFLRRGVPVLHLIPSPFPEVWHTMDDNEENLDESTIDNLNKILQVFVLEYLHL
notes: The cDNA of the mature QC starting with codon 38 was fused in frame with the plasmid encoded 6× histidine tag; 6xHis; made in house; host or cells: Pichia pastoris X33 (pPICZαB, secreted); also E. coli M15 (pQE-31)
Km (0.05M Tris-HCl, pH 8.0): 76 ± 4 µM | kcat (0.05M Tris-HCl, pH 8.0): 21.7 ± 0.5 s⁻¹ | kcat/Km (0.05M Tris-HCl, pH 8.0): 285000 ± 8000 M⁻¹ s⁻¹ | Km [1]: 63 ± 3 µM | kcat [1]: 20.0 ± 0.4 s⁻¹ | kcat/Km [1]: 318000 ± 9000 M⁻¹ s⁻¹ | Km (pH 8.8): 70 ± 3 µM | kcat (pH 8.8): 20.6 ± 0.5 s⁻¹
